According to the nanobody polyreactivity screen of Harvey et al. (2022):

Test: yeast display, Sf9 membrane polyspecificity reagent, FACS + sequencing; frameworks hold sequencing errors
In short: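 A nanobody's polyreactivity label depends on the gate it was sorted from. Yeast display cells were stained with 10% biotinylated, detergent-solubilized Sf9 membrane reagent for 1 hour at 4 °C, enriched on streptavidin microbeads and sorted by FACS. The low and high (top ~1%) gates were set on anti-HA fluorescence for expression and streptavidin fluorescence for reagent binding.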

Sequence	polyreactivity (PSR sort gate)
QFQLVESGGGLVQAGGSLRLSCAASGSIFKYNAMGWYRQAPGKEREFVAAISSSSGNTYYADSVKGRFTISRDNAKNTLYFQMNSLKPEDTAVYYCAADASRPRIPEMYYWGQGTQVTVSS	high polyreactivity
QFQLVESGGGLVQAGGSLRLSCAASGSIFLAYDMGWYRQAPGKERELVAGITSGGTTYYADSVKGRFTISRDNAKNTVYLQMNSLKPADTAVYYCAALLYTPYYYWGQGTQVTVSS	low polyreactivity
QFQLVESGGGLVQAGGSLRLSCAASGSIFRGYTMGWYRQAPGKERELVAAISWSGGSTYYADSVKGRFTISRDNAKNTVYLQMNSLKPEDTAVYFCAAGDYYHRIFLWYDYWGQGTQVTVSS	low polyreactivity
QFQLVESGGGLVQAGGSLRLSCAASGSIFYTYVMGWYRQAPGKERELVAVISWSSTSTYYADSVKGRFTISRDNAKNTVYLQMNSLKPEDTAVYYCAAGVHRYRPGHGYDDGGYYWGQGTQVTVSS	low polyreactivity
QFQLVESGGGLVQAGGSLRLSCAASGSILESNVMGWYRQAPGKERELVASISSSGVSTYADSVKGRFTISRDNAKNTVYLQMNSLKPEDNAVYYCAADRWYWTYALYYWGQGTQVTVSS	low polyreactivity
QFQLVESGGGLVQAGGSLRLSCAASGSTFLSNAMGWYRQAPGKERELVAGIDYNDGSTYYADSVKGRFTISRDNAKNTVYLKMNRLKPADTAVYYCAARWVFRRYVICMDFWGQGTEVTVSS	low polyreactivity
QFQLVESGGGLVQAGGSLRLSCAASGSTFQWYAMGWYRQAPGKERELVAAINKSGGTTYYADSVKGRFTISRDNAKNTVYLQMNSLKPEDTAVYYCATDNPVVYQPGNMDYWGQGTQVTVSS	low polyreactivity
QFQLVESGGGLVQAGGSLRLSCAASGSTFRIYTMGWYRQAPGKHRELVAGISSSGNTNYADSVKGRFTISRDNAKNTVYLQMYSLKPEDTAVYYCAAVQPAWGNGYWGQGTQVTVSS	high polyreactivity
QFQLVESGGGLVQAGGSLRLSCAASGSTFRTYAMGWYRQAPRKERELVADITWRGGSKYYADSVKGRFTISRDNAKNTVYSQMNSLKPEDPAVYYCATDRGPEVVLYDYWGQGTQVTVSS	low polyreactivity
QFQLVESGGGLVQAGGSLRLSCAASGSTFTPNVMGWYRQAPGKERELVAAINSSGGSTFYADSVKGRFTISRDNAKNTVYLQMNSLNPEDTAVYYCAASWHTPTVYDEYYYWGQGTQVTVSS	low polyreactivity
QFQLVESGGGLVQAGGSLRLSCAASGSTFTQNTMGWYRQAPGKERELVAAISRRGGGTYYADSVKGRFTISRDNAKNTVYLQMNSLKPEDTAVYYCNAPYILTQQGGRRYDYWGQGTQVTVSS	high polyreactivity
QFQLVESGGGLVQAGGSLRLSCAASGSTFYANAMGLYRQAPGKERELVAAISYSGGSTYYADSVKGRFTISRDNAKNTVYLQMNSLKPEDTAVYYCAATNGKKTPKVYYWGQGTQVTVSS	low polyreactivity
QFQLVESGGGLVQAGGSLRLSCAASGYTFAVNTMGWYRQAPGKESELVAAITLGGGSTYYADSVKGRFTISRDNAKNTVYLQMNSLKPEDTAVYYCATDPVDYRGWWRGYKYDYWGQGTQVTVSS	low polyreactivity
QFQLVESGGGLVQAGGSLRLSCAPSGFIISSNAMGGYRQAPGKERELVAAISARGGSTYYADSVKRRFTISRDNAKNTVYLQMNSLKPEDTAVYYCNTDYKTTGDYWGEGTQVTVSS	high polyreactivity
QFQLVESGGGLVQAGGSLRLSCASSGGTFGNNDMGWYRQAPGKESELVAAIRSAGTTYYADSVKGRFTISRDNAKNTVYLQMNSLKPEDTAVYYCNADTTGYWSYGFQYYGEDYWGQGTQVTVSS	low polyreactivity
QFQLVESGGGLVQAGGSLRLSCASSGRTFGYNTMGWYRQAPGKERELVAAINYSGGSTYYADSVKGRFTISRDNAKNTVYLQMNSLKPEDTAVYYCNAKPRWYVPYDYWGQGTQVTVSS	high polyreactivity
QFQLVESGGGLVQAGGSLRLSCASYGFTFEYNAMGGYRQSPGKESEFVATISWSGGSTYYADSVKGRFTFSRDKAKNTVYLQMNSLKPEDTAVYYCNAEVFFPSTYGMDYWGQGTQVTVSS	low polyreactivity
QFQLVESGGGLVQAGGSLRLSCPPSGSIFPGYAMGWSRQSPGKERELVATITWSGGSTYYADSVKGRFTISRDNAKNTVYLQLTSLKPEDTAVYYCNADTNWYYQLNYYGLYDYWGQGTQVTVSS	low polyreactivity
QFQLVESGGGLVQAGGSLRLSCSSSGSIFGAYDMGWYRQAPGKERELVAAITSVGSTYYADSVKGRFTISRDNAKNTVYLQMNSLKPEDTAVYDCAKRQWRPTYRYGYWGQGTQVTVSW	low polyreactivity
QFQLVESGGGLVQAGGSLRLSGAASGRTFRIYAMGWYRQAPGKDRELVAAITRSSGSTYYADSVKGRFTISRDNAKNTVYLQMNSLKPEDTAVYYCAAEALFEPIYDYWGQGTQVTVSS	high polyreactivity
QFQLVESGGGLVQAGPSLLLSFAASGNTLHVYAMGRYRQAPGKERELVAAITSDVSTYYADSVKGRFTISRDNAKNTVYLQMHSLKPEDTAVYYFATTGYGSYLIYWGQGTQVTVSS	low polyreactivity
QFQLVESGGGLVQEGGSLRLSCAASGFTFYYYTMGWYRQAPGKERELVAAITWRGGSTNYADSVKGRFTISRDNAKNTVYLQMNSLKPEDTAVYYCAAVTYWFWPGMDYWGQGTQVTVSS	low polyreactivity

Sequence	polyreactivity (PSR sort gate)
QFQLVESGGGVVQAGGSLRLSCAASGSIIYVNAMGWYRQAPGKERELVAAINYSGDSTYYADSVKGRFTISRDNAKNTVYLQMNSLKPEDTAVYYCAADIYVYYAPVYQYYWYDSWGQGTQVTVSS	high polyreactivity
QFQLVESGRGLVQAGGSLRLSCAASVRTFGFNAMGRYRQAPRKERELVAAISGSGGRTYYADSVKGRFTISRDKAKNTVYLQMNSLKPEDTAVYYCAAGARRGGSGYWGQGTQVTVSS	high polyreactivity
QFQLVESGVGLVQAGGSLRLSCAASGFTFWYYAMGWYRQAPGKERELVARITSRAADTYADSVKGRFTISRDNAKNTVYLQMNSLKPEDTAVYYCNAEFGRARDDDYSGQGTQVTVSS	low polyreactivity
QFQLVESGVGLVQAGGSLRLSCAASVRIFITNAMGWYRQAPGKERELVAAISGGSTYYGDSVKGRFTISRDNAKNTVYLQMNSLKPEDTAVYYCAVDNYYTPWYPYLGYDSWGQGTQVTVSS	low polyreactivity
QFQLVESVGCLVQAGGSLRLSCAASGILFSWYAMGWYRQPPGKERELVAAISKGGGSTYYADSVKGRFTISRDNAKNTVYLQMNSLIPEDTAVYYCAADSSYGYGYWGQGTQVTVSS	high polyreactivity
QFQLVESVGGLVQAGGSLRLSCAASGNIFPAYAMGWYRQAPGKERELVAAISKSGGRTYYADSVKGRFTISRDNAKNTVYLQMNSQKPEDTAVYYALLTVLRAVPYSVRYDYCGQGTQVTVSS	high polyreactivity
QFQLVESVGGLVQAGGSLRLSCAASGSTFVRNELGWYRQAPGKERELVAANSVDGSSTYYADSVKGRFTISRDNAKNTVYLQINSLKPEDTAVYYCNADWDYRDFYDITYDYWGQGTQVTVSS	low polyreactivity
QFQLVESVGGLVQAGGSLRLSCAASGTTIPSYAMGWYRQAPGKERELVASITYSDGTTRYADSVKGRFTISRDNAKNTVYLQMNSLKPEDTAVYYCNAVYYREGMDYWGQGTQVTVSS	low polyreactivity
QFQLVESVVGLVQAGGSLRLSCAASGTTFGVNDMRWYRQAPGKEREFVADITTSGGSTYYADSVKGRFTISRDNAKNTVYLQMNSLKPEDTAVYYCAADLWPFEHDDYWGQGTQVTVSS	low polyreactivity
QFQLVETGGGLVQAGGSLRLSCAASGRTFRFNAMGWYRQAPRKEREFVAAITSGGGTYYADSVKGRFTISRDNAKNPVYLQMNCLKPEDTAVYYCAAPRQYYLMVYWGQGTQVTVSS	low polyreactivity
QFQRVESGGGLVQAGGSLRLSSAASASIFSVYTMGWSRQAPGKERELDAAISTGGGSKYYADSVKGRFTISRDNAKNTVYLQMKSLKPEDTSVYYCGTDYGWPPSYWYDSFGQGTQVTVSS	low polyreactivity
QGHLVESLGGLVQAGGSLRLSCAASGRIIGVYAMGWSRQAPGKERELVAAISEGGGSTNYADSVKGRFTISRDNSKNTVYLQMNSLKPEDTAVYYCNADADEYRDYHDYDYWGQGTQVTVSS	low polyreactivity
QGPHVESGGGLVQAGGSLRLSCAASGSTFYNYAMGWYIQAPGKEREFVATISFSGGSTYYADSVKGRFTISRDNAKNTVYLQMNSLKPEETAVYYCAARALTRKATGYYLTDYWGQGTQVTVSS	high polyreactivity
QGQHVESGGGLVQAGGSLRLSCAASGFTFAHNAMGWDRQAPGKETDFVAAITSRGGSTYYADSVKGRFTISRDNAKNSVYFQMYSPNPEDTAVYYCAADDYIYTVYSYTYQYWGQGTHVTVSS	low polyreactivity
QGQHVESGVGLVQAGGSLRLSCAASVFMFESNAMGWYRQAPGKERELVAAITSAGRTYYADSVKGRFTISRDNAKNTVYLQMNSLKPEETAVYYCNAPRSRYRYDYWGQGTQVTVSS	high polyreactivity
QGQLEESCGGLVQAGARLRISCEASGRTFRFYTMGGYRPAPGKEMELVAAISSNTGTTYADSVKGRFTISRDNAKNTVYLQMNSLKQEDTAVFFCAARVRRQYYNRPYYYWGQGTQVTVSS	high polyreactivity
QGQLEESGGGLVQAGGSLRLSCAASGRTFGPYAMGRYRQAPGKERELVAAIRSAGSTYYADSVKGRFTISRDNAKNTVYLQMISLKPEDTAVYYCADDIARHLTGFAYYRLDYWGQGTQVTVSS	low polyreactivity
QGQLEESGGGLVQAGGSLRLSCAASGSIFTLYAMGWYRQAPGKERELVAAITRSGGSTYYADSVKGRFTISRDNAKNTVYLQMNSLKPEDTAVYYCAADKAPYSTEGDYWGQGTQVTVSS	high polyreactivity
QGQLEESGGGLVQAGGSLRLSCPASGYILGGNAMGWYRQAPGKERELVARIRVSSGSTYADSVKGRFTISRDNAKNTVYLQMNSLKPEDTAVYYCAASISSRYRYTAYDYWGQGTQVTVSS	high polyreactivity
QGQLGDSGGGLVQAGGSLRLSCAASGLTFWGKVMGWSRPAPGKERELVAAITSGGSTYYADSVKGRFTISRDNAKNTVFLQMNSQKPEDTAVYYCATAFYYSYSEYYYWGQGTQVTVSS	high polyreactivity
QGQLLESGGGLVQAGGSLRLSCAASGRTFRSYAMGWYRQAPGKESELVAASSQRGGSSFYADSVKGRFTISRDNAKNSVYLQMNSLKPEDTAVYYCANPVRSGYDYWGQGSQVTVSS	high polyreactivity
